From patent publication US7858577B2, “Use of the long pentraxin PTX3 for the treatment of diseases caused by an altered activation of the growth factor FGF-2” (Sigma-Tau Industrie Farmaceutiche Riunite S.p.A., priority 2000, dated 2010)
pKd: −log10 of the molar value.

What was measured:
MAE3F2T cells = assay: Effect on FGF-2 dependent autocrine proliferation of MAE3F2T cells; assay type: cell-based, murine; settings: 72 h in 0.4% FCS; PTX3 70 nM, suramin 50 μg/ml, anti FGF-2 antibodies; cell counting
Experimental: In this experiment we have investigated the effect of PTX3 on the proliferation of the murine aortic endothelial cell line MAE3F2T stably transfected with an expression vector coding for FGF-2 (Gualandris et al. 1996, Cell Growth Diff. 7:147-60). These cells can proliferate in response to a autocrine loop of stimulation induced by endogenous FGF-2 (Gualandris et al. 1996, Cell Growth Diff. 7:14760). MAE3F2T cells were seeded at 10,000/cm^2 in 48-well plates in Dulbecco medium (DMEM) added with 10% FCS. After 24 h at 37° C., adherent cells were washed twice with DMEM without FCS and incubated for 72 at 37° C. in DMEM containing 0.4% FCS in the presence or not of PTX3 (70 nM), anti FGF-2 specific antibodies or suramin (50 μg/ml). Suramin is known for its capacity to sequestrate extracellular FGF-2 and inhibits its biological activities (Rusnati et al., 1996, Mol. Biol. Cell. 7:369-381). At the end of incubation cells were trypsinized and counted in a Burker chamber.

FGF-2 [1] = target: T1, FGF-2 (Homo sapiens, UniProt P09038); assay: Capacity of PTX3 to bind FGF in solution (Superose 12 size exclusion chromatography, dot-blot); assay type: binding; settings: FGF-2 pre-incubated with PTX3 10 min at 4° C., Superose 12 column
T1 construct: made in house
T1 sequence (P09038 134-288): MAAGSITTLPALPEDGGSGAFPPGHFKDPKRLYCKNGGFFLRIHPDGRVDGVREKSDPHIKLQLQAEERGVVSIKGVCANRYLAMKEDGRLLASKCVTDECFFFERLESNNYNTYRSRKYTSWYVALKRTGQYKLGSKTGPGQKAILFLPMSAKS
Experimental: This experiment has been performed in order to evaluate PTX3 binding to FGF-2. PTX3 has been produced as described by Bottazzi et al., 1997, J. Biol. Chem. 272:32817-32823. Human recombinant FGF-2 has been produced as described by Isacchi A. et al., Proc. Natl. Acad. Sci. U.S.A. (1991), 88:2628-32. When necessary, FGF-2 has been labelled with ^125I following the method described by Isacchi et al. (see below).
100 μl of PBS containing 1 μg of FGF-2, (or alternatively 1 μg of PTX3) were chromatographed on a size exclusion fast protein liquid chromatography Superose 12 column (Pharmacia): this column is able to separate proteins depending on their molecular weight. The column was eluted with PBS at a flow rate equal to 1 ml/minute and 1 ml fractions were collected and analyzed by dot, blot with specific antibodies for the two proteins. In order to evaluate PTX3 binding to FGF-2 the two proteins ([…] and 1 μg, respectively), were mixed in 100 μl PBS and incubated at 4° C. for 10 min. before loading onto the column. Fractions were collected and analysed by dot-blot with anti FGF-2 specific antibodies. […] In the same conditions PTX3 (450.000 D) is eluted with the void volume of the column (7 ml.) When FGF-2 pre-incubated with PTX3 for.

FGF-2 [2] = target: T1, FGF-2; assay: 125I-FGF-2 binding to plastic immobilised proteins; settings: wells coated with 200 nM PTX3 or CRP or 2 μg/ml control proteins, 30 ng 125I-FGF-2, 2 h room temperature
Experimental: (§1) 96 wells plates were coated at 4° C. with 100 μl of NaHCO3 pH 9.6 containing PTX3 or C reactive protein (200 nM) or alternatively 2 μg/ml of the following proteins used as negative control: bovine serum albumin, fibronectin, gelatine or laminin. After incubation, wells were washed 3 times with PBS and blocked 2 h at room temperature with 200 μl of 1 mg/ml of BSA in PBS. At the end of incubation wells were washed 3 times with PBS and subsequently incubated with 30 ng of ^125I-FGF-2 for 2 h at room temperature. Wells were subsequently washed 3 times with PBS and bound ^125I-FGF-2 was recovered by washing each well twice with 200 μl of 2% SDS in water. Levels of ^125I-FGF-2 were measured in a gamma counter.

FGF2MAE3F2T cells [3] = assay: Proliferation of FGF2MAE3F2T clones over-expressing PTX3; assay type: cell-based, murine; settings: clones transfected with human PTX3 full length cDNA (pLXSH) vs parental cells, 0.4% FCS
Experimental: (§2) Murine endothelial cells overexpressing FGF-2, named FGF2MAE3F2T (Gualandris et al. 1996, Cell Growth Diff. 7:147-60) were transfected with human PTX3 full length cDNA subcloned in the commercial expression vector pLXSH (Clontech).
(§3) In vitro studies on the transfected cell lines obtained were, performed to study the effect of PTX3 over-expression on FGF-2-dependent proliferation of FGF2MAE3F2T cells and their invasive behaviour on three-dimensional fibrin gels.
After 24 h at 37° C., adherent cells were washed twice with DMEM without FCS and incubated for different period of time at 37° C. in DMEM containing 0.4% FCS. At the end of incubations cells were trypsinized and counted in a Burker chamber.

GM 7373 cells = assay: Effect of PTX3 on proliferation induced by other mitogens (FCS, DAG, TPA, EGF, VEGF); assay type: cell-based, bovine; settings: 10% FCS, 5 μg/ml DAG, 10 ng/ml TPA, 30 ng/ml EGF or 30 ng/ml VEGF
Experimental: GM 7373 cells were seeded at 75,000 cells/cm^2 in 48-well plates in Eagle MEM containing 10% FCS. After 24 h at 37° C. adherent cells were washed twice with Eagle's MEM without FCS and subsequently incubated for 24 h at 37° C. in Eagle's MEM containing 0.4% FCS in the absence or in the presence of FGF-2 (10 ng/ml) and increasing concentrations of PTX3. At the end of incubation cells were trypsinized and counted. In a different set of experiments GM 7373 cells were treated as described above in the presence of different mitogenic stimuli: 10% FCS; 5 μg/ml dyacyl-glycerol (DAG); 10 ng/ml phorbol ester (TPA) 30 ng/ml epidermal growth factor (EGF) or 30 ng/ml vascular endothelial growth factor (VEGF). Results reported in FIG. 7 shown that PTX3 inhibits the mitogenic activity exerted on endothelial cells by FGF-2 in a dose-dependent manner with an ID50 equal to 30 nM. This value is similar to the Kd calculated for the interaction FGF-2-PTX3.

[4] = test system: low affinity receptors (HSPGs) on GM7373 cells; assay: Effect of PTX3 on 125I-FGF-2 binding to low affinity receptors on endothelial cells; assay type: cell-based, bovine; settings: 125I-FGF-2 10 ng/ml, 2 h at 4° C., increasing concentrations of PTX3
Experimental: (§4) Transformed foetal bovine aortic endothelial cells GM7373 were seeded at 80,000 cells/cm^2 in 24-well dishes in Eagle's minimal essential medium (Eagle's MEM) containing 10% FCS. After 24 h at 37° C. adherent cells were washed twice with Eagle's MEM without FCS and subsequently incubated for 2 h at 4° C. with ^125I-FGF-2 (10 ng/ml) in Eagle's MEM containing 0.15% gelatine and 20 mM HEPES pH 7.5 in the absence or in the presence of increasing concentrations of PTX3. At the end of incubation the amount of ^125I-FGF-2 bound to low (HSPGs) and high affinity receptors (FGFR) was evaluated as described by Moscatelli, 1987 J. Cell. Physiol. 131:123-30. Briefly cells were rinsed twice with 2 M NaCl in 20 mM HEPES buffer (pH 7.5) to remove ^125I-FGF-2 bound to low-affinity binding sites and twice with 2 M NaCl in 20 mM sodium acetate (pH 4.0) to remove ^125I-FGF-2 bound to high-affinity binding sites. Non-specific binding was measured in the presence of a 100-fold molar excess of unlabeled FGF-2 and subtracted from all the values.

FGF2MAE3F2T cells [5] = assay: Invasive behaviour of PTX3 over-expressing FGF2MAE3F2T clones on three-dimensional fibrin gels; assay type: cell-based, murine; settings: PTX3 over-expressing clones (cDNA transfection) vs parental cells, after 2 days, image analysis
Description: as §2, §3
To evaluate the invasive behaviour of FGF2MAE3F2T clones over-expressing PTX3 on three-dimensional fibrin gels, cell aggregates were prepared on agarose-coated plates exactly as described (Gualandris et al. 1996, Cell Growth Diff. 7:147-60). These aggregates were seeded onto fibrin-coated 48 well-plates. Immediately after seeding, 250 µl of calcium-free medium containing fibrinogen (2.5 mg/ml) and thrombin (250 mU/ml) were added to each well and allowed to gel for 5 min at 37° C. Then, […] of culture medium were added on the top of the gel. In all the, experiments, the fibrinolytic inhibitor trasylol was added to the gel and to the culture medium at 200 KIU/ml to prevent the dissolution of the substrate. Formation of radially growing cell sprouts was evaluated after 2 days by computerized image analysis.

FGF-2 [6] = target: T1, FGF-2; assay: Dissociation constant (Kd) of FGF-2/PTX3 interaction, Scatchard plot; assay type: binding; settings: increasing doses of 125I-FGF-2 on plastic immobilised PTX3, Scatchard plot
Experimental: With this experiment the dissociation constant (Kd) FGF-2/PTX3 interaction has been determined. For this purpose increasing doses of ^125I-FGF-2 were incubated with plastic immobilised PTX3 and binding results were analysed by Scatchard plot. […] This affinity is similar to the affinity previously calculated for the interaction of PTX3 with its physiological ligand C1q.

[7] = test system: neovascularization induced in vivo by FGF-2; assay: Chick embryo chorioallantoic membrane (CAM) assay, neovascularization induced by FGF-2; settings: gelatin sponge, FGF-2 500 ng/sponge, PTX3 5 ug/sponge, scored after 4 days
Experimental: The antiangiogenic potential of PTX3 was evaluated in vivo in the chick embryo chorioallantoic membrane (CAM) assay. Briefly, a window was opened in the egg shell of 3 day-old fertilized chicken eggs. At day 8, gelatin sponges were implanted on the CAMs and adsorbed with 10 ul of PBS alone or containing FGF-2 (at 500 ng/sponge) in the absence or in the presence of PTX3 (5 ug/sponge) (5-6 embryos per group).

[8] = target: T2, interaction between 125I-FGF-2 and plastic immobilised PTX3 (Homo sapiens, UniProt P09038+P26022); assay: 125I-FGF-2 binding to plastic immobilised PTX3 in the presence of an excess of competitor; settings: excess of competitor: FGF-2 or Cytocrome C 100 nM, soluble PTX3 300 nM
T2 construct: made in house
T2 sequence (P09038 134-288): as above
T2 sequence (P26022 18-381): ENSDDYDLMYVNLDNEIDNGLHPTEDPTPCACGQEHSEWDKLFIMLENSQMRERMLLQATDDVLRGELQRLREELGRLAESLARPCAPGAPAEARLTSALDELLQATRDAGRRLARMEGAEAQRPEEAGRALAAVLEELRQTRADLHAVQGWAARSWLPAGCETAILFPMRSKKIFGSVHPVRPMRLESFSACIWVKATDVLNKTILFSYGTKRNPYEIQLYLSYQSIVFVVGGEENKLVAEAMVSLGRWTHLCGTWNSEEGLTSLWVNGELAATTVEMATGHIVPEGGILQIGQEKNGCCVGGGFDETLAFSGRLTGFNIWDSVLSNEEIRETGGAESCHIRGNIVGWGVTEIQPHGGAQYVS
Experimental: as §1
In a second set of experiments the binding of ^125I-FGF-2 to plastic immobilised PTX3 has been tested in the presence of an excess of both native or heat denatured cold FGF-2 (100 nM), in the presence of similar Cytocrome C concentrations or in the presence of an excess of soluble PTX3 (300 nM).

[9] = test system: high affinity receptors (FGFR) on GM7373 cells; assay: Effect of PTX3 on 125I-FGF-2 binding to high affinity receptors on endothelial cells; assay type: cell-based, bovine; settings: 125I-FGF-2 10 ng/ml, 2 h at 4° C., increasing concentrations of PTX3
Experimental: as §4

FGF-2 [10] = target: T1, FGF-2; assay: Capacity of biotinylated PTX3 to bind plastic immobilised FGF-2; assay type: binding; settings: ELISA, streptavidin HRP, 405 nm
Experimental: 100 μl of NaHCO3 pH 9.6 containing 500 ng of FGF-2 or of the complement component C1q were incubated 18 h at 4° C. in 96 wells plastic plates. At the end of incubation wells were washed 3 times with PBS and subsequently incubated 2 h at room temperature with 200 μl of PBS containing 1 mg/ml of Bovine Serum Albumin (BSA). At the end of incubation wells were washed again 3 times with PBS and incubated with 30 ng/ml of ^125I-FGF-2 in presence of increasing amounts of biotinylated PTX3 in 100 μl of PBS (2 h at room temperature). Alternatively wells were adsorbed with increasing doses of FGF-2 or C1q and incubated with 100 ng/ml of biotinylated PTX3 in 100 μl of PBS. After this incubation wells were washed 3 times with PBS and incubated 1 h at room temperature with 100 μl of streptavidin HRP conjugate ( 1/2000). Reaction was developed by adding the chromogen microwell peroxidase substrate system ABTS (Kirkegaard & Perry Laboratories). Plates were read in an automatic ELISA reader at 405 nm.

`Cc1ccc(C(=O)Nc2ccc(S(=O)(=O)O)c3cc(S(=O)(=O)O)cc(S(=O)(=O)O)c23)cc1NC(=O)c1cccc(NC(=O)Nc2cccc(C(=O)Nc3cc(C(=O)Nc4ccc(S(=O)(=O)O)c5cc(S(=O)(=O)O)cc(S(=O)(=O)O)c45)ccc3C)c2)c1` [suramin, reference compound] was tested, and the “inhibition of FGF-2 dependent proliferation of MAE3F2T cells” value (MAE3F2T cells) was “in a manner similar to that exerted by anti FGF-2 antibodies and suramin”.
For “PTX3: long pentraxin PTX3; preferred is human PTX3, sequence described in WO99/32516; produced as by Bottazzi et al. 1997”, the “binding of PTX3 to FGF-2 in solution (change of FGF-2 chromatographic behaviour)” value (FGF-2 [1]) was “FGF-2 was eluted from the column with a retention volume equal to PTX3 alone”, the “binding of 125I-FGF-2 to plastic immobilised protein” value (FGF-2 [2]) was “FGF-2 binds plastic immobilised PTX3” and the “effect of PTX3 over-expression on FGF2MAE3F2T cells proliferation” value (FGF2MAE3F2T cells [3]) was “inhibits FGF2MAE3F2T cells proliferation”. The “inhibitory activity when other mitogens are used to induce cellular proliferation” value (GM 7373 cells) was “not detectable”, the “inhibition of FGF-2 binding to low-affinity receptors on endothelial cells” value [4] was “able to inhibit in a dose-dependent manner” and the “invasive capacity on fibrin gels (radially growing cell sprouts)” value (FGF2MAE3F2T cells [5]) was “significantly lower”. For the same molecule, the pKd (FGF-2 [6]) was 7.80 to 8.10, the “effect on neovascularization induced in vivo by FGF-2 (angiogenic response score 0-4+)” value [7] was “able to block the neovascularization” and the “inhibition of FGF-2 dependent proliferation of MAE3F2T cells” value (MAE3F2T cells) was “inhibiting their FGF-2 dependent proliferation”. For the same molecule, the “inhibition of the interaction between 125I-FGF-2 and plastic immobilised PTX3” value [8] was “inhibited the interaction” and the “inhibition of FGF-2 binding to high-affinity receptors on endothelial cells” value [9] was “able to inhibit in a dose-dependent manner”.
“heat-inactivated FGF-2: heat denatured unlabelled FGF-2 used as competitor” was tested, and the “inhibition of the interaction between 125I-FGF-2 and plastic immobilised PTX3” value [8] was “not able to bind PTX3”.
With “CRP: short pentraxin homologous to PTX3, used as comparison protein” the “binding of 125I-FGF-2 to plastic immobilised protein” value (FGF-2 [2]) was “reacts poorly” and the “binding of 125I-FGF-2 to plastic immobilised protein” value (FGF-2 [2]; listed as C-reactive protein) was “does not bind FGF-2”.
For “biotinylated PTX3: PTX3 labelled with biotin for the ELISA binding test”, the “binding of biotinylated PTX3 to plastic immobilised FGF-2” value (FGF-2 [10]) was “FGF-2 immobilised on plastic wells is able to bind biotinylated PTX3”.
With “cold FGF-2: human recombinant growth factor FGF-2, unlabelled, used as competitor” the “inhibition of the interaction between 125I-FGF-2 and plastic immobilised PTX3” value [8] was “inhibited the interaction”.
